Experimental data as given in a protein production outcome set (Wang et al. 2014).

Test: label from the status in PepcDB records

Sequence	protein production
MKRFPGRDMRSLTELVLGRDKFRTALCCSVVGMLLTLLFLSSCHYTRPDLTSEELSEKTKDSLNYLYDRHYTWNTNLEVTTDSVTMECLPIKDTYIALYKGDRVVVAEFAIHPADSVDSVWVKLAHTQEEQGWIRETELKESFVPTDSISQAIHFFSDTHASYFMIIFALFVGVYLFRAFRRKQLQLVYFNDIDSVYPLFLCLLMAFSATVYESMQVFVPDTWEHFYFNPTLSPFKVPFILSVFLLSIWLFLIVALAVLDDLFRQLTPAAAVFYLLGLMSSCIFCYFFFILMTHIYIGYLFLAFFIWVFAKKVHRNISYKYRCGHCGEKLKEKGICPHCGAINE	failed
MKRHYIFASHGSFANGLLNSVELILGKQPDIHTLCAYVEEEVDLTQQVEALVARFPAQDELIVITDIFAGSVNNEFVRFLSRPHFHLLSGLNLPLIIDLLISAAEDNTEKLITEALTNAKESIQYCNQTIASAMTMDKDF	not failed
MKRKISSIIVVGIMLFQSLTMYPFITEAKENEQKEEINKPSKITKGLTNSLKYTKTILETGDTYDSVFPDSALAKVVAKEATGSENTTQLVTQADLNKIKSLNGYNKGISVLTGIDLLVNVTSISLNNNQVTDISPIDQLPNLVSLSVKNNQISSLILNAQNQLPKLTTIDIENNPDLNTIDIQDQPQLVDVKTSGYTGLRKLTTVIAKNNPELVNLGQYTIRNVYFSQVASLTKVELVNLPKVRKVNLERNSINELKVTDLAIEDLPLEENELTDTVFDNIQNLPNLKTLDLSKNQLEEVVLDKTDVENLPNLMTLDIQQNLAIKLINVQDQPQLVDVKTSDYKELSALTTVIAKNNPELVNLGQYTIRNVYFSQVASLTKVELVNLPKVRKVNLERNSINELKVTDLAIEDLPLEENELTDTVFDNIQNLPNLKTLDLSKNQLEEVVLDKTDVENLPNLMTLDIQQNLAIKLINVQDQPQLVDVKTSDYKELSALTTVIAKNNPELVNLGYPIMQNVYFSQVASLTKVELANLPKVRAVRLERNSINQIELNNLVSVKDVNLNTNKITNDSIEKFRGMPILATLNLNKNQITNINMLDGFPQMTTLNIDLNSISVLPSNLKTKMPKLSRISALNQTVTLGKAIVVDDSDLIINNEISNFEKLTEPSPISNFGTYANEKITWSSERIKNLTEVSFQFSELINVTGIDGTFSGKVTQPFKRSTTPVINADSEIHYPQGTEKTEAEFLKDVQAQTTDDLAIKSDFETMVNLKKVGKYTVTLNVENLDGIKATPKEVIVYIDAVQGANITVKYEDESGNKLAENSILTGNVGEEYSSSAKEILGYTLTEMPSNAQGEFSLEEQTVTYIYSKNPVPAKDITVQYTDEDGMELAPTETLSGNVDENYVTTAKTFTGYELIETPSNAEGKFSENAQTVTYVYRAIKAEPILAKEVTVNYQDELGAKISETEVLTGEIGETYTTVAKTIDGYTLIKSPTNANGIFNENPQTVTYVYQLQNSPIAANITVKHLDENNNELAPSEVLSGNVDEAYTTKPKEIKDYSLVKVPTNASGKFTTEAQTVIYHYKKNSIPTSSYITVKYVDETGKELAISKVLNGNINDSYATTAKEIKGYTLVQKPANATGKFTDQNQTIKYVYRANKAEVNPNPNSDVLGSNSNGDIQPTNDIKPTNDVQPTNEAPQTLPKTGSQPANLIFGLGILLVLLSTQWLHRNKRKKAKSHNC	failed
MKRKKPTIHDVAAKAGVGLGTVSRVLNDHPAVRHETRARVLRAMEELGYAPNPHARRIAGGRSYTVSVLLPFVATEFYRRLVEGIEGVLLEQRYDLALFPILSLARLKRYLENTTLAYLTDGLILASYDLTERFEEGRLPTERPVVLVDAQNPRYDSVYLDNRLGGRLAGAYLARFPGPIFAIAVEEEPDRAFRRTVFAERMAGFQEALKEAGRPFSPDRLYITRHSQEGGRLALRHFLEKASPPLNVFAGADQV	not failed
MKRKTLLMAALMGGCSLQGMAQQITPKDVAGDKEYNRVCREYELKGGDSMELLQAYLDKYPDSRHKNRVLSLIASAYFMEGKYKEAIALFRSCDLEALPDKERDDCAMRLATSYLKEDNLREAAVWFTLLKEVSPLYQDDAVYNLAYIDYVEKRYDKALKSFQSLQNDAVYAALVPYYIGEIYLVKGNYQQARTVAKAYLEQYPAKKDVPQMERIWGEACFGLNDYQAAIPPLERYRESVSHPQRKPLYELGMSYYYTGVYSKAAATLGEMASVHDALSQNAYLHMGLAYLNLKERNRARMAFEQAANFSFDPKVKEQALYNYALCIHETSYSPFAESVTVFERFLNEFPNSPYTERVNDYLIEVYMNTRSYEAALKSIAKIEHPGTRIMEAKQKILFRLGTQAFANARFQEALEFFNQSLAVGQYNQATKADAYFWRGESNYRLDRFPQAGNDYRLYLEFATSKNGQEYGLALYNLGYTYFKQKNYGNAGTWFTRFVDRGSINERTMQADAYNRIGDCNFYDRRFEQARQDYARAVEIDPSLGDYSLYQEAFVRGLQRDYNGKVQTLNRLISDYPESQYMDDALYEQGRAFVQMEDNANAIARFNILVKKFPESNVARRAANEIGLLYYQDDKYPEAIQAYKQVIAGYPGSEEARLAQRDLKSIYIDLNKVDEYANFASTIPGGANFDVNERDSLTYVAAERVYMRGEVAEARNSFTRYLQTFPEGAFSLNANYYIGLIDYNQKAYESAARHLDKVLEYPNNKYSEDAMLMGAEMAYTAKDYEKALHIYKQLKDKAASMERRRLAKTGMLRSAHMLGNEEEIIFAATDLLADTKLAPELSNEAHYYRAKAYLDAGKTDGAMEDLKVLAKDTRNVYGAEAKYKVAQIYFDGGQTDKAEQEVLNYIEVSTPHTYWLARSFVLLADVYMKLGRNLDAKQYLLSLKQNYQADDDIAGMIESRLEKLKTEN	failed
MKRLFIASLLAFAPFTWALDQAGSQRLSDLQQRWAQIQYQMPKDKRADAFEKLAGDAATFVRQYPGTPEPLIWEGIINSSWAGATGGLGALGKVKAAKASLEQAMKLDPAALQGSAYTSLGTLYDQVPGWPIGFGDAEMADKMLRKALQINPNGIDSNYFWADHLYRQKRYPEATAALQKALQAPPRPGRELADQGRRADIDALLKTIKDKQD	failed
MKRNNKSAIALIALSLLALSSGAAFAGHHWGNNDGMWQQGGSPLTTEQQATAQKIYDDYYTQTSALRQQLISKRYEYNALLTASSPDTAKINAVAKEMESLGQKLDEQRVKRDVAMAQAGIPRGAGMGYGGCGGYGGGYHRGGGHMGMGNW	not failed
MKRPRGKPLFKPVKERNPVAVGVAGLLVLTLVALLVYNVDRLPFGGGTTYSADFSESAGLDEGDEVRIAGVKVGQVTGVALDGAKVKVSFEVEDAWIGDRTTAAIAIKTVLGDKYLALDPLGSGRQDPGARIPLARTTSPYDVTQAFQDLSGTVDDIDTGRLAESFETISDTFKDSPPHVRKAATGLSDLSKSISKRDAKLSELLKGSARFTKTLENNKSSFETLIEDGGPLLGELRDRRTAINALLKGSQDLGTELGGLVKDNEKQLGPTLKALGRVTSVLEKNNTRLGETLALVGPYYRLVGNTLGNGRWFDSYLCGVVPRDYLPETSQPSTGCLPPKQPAAAQGSGARLEHHHHHH	failed
MKRSCMPARSNRNRINSALRGQLLRYLLNGLVATAVHYTILRFTLEVLGLHSAGLANGIAAIFGIIVSFIGNRYFVFRIVQVPLAKQALLFILTYFCIALIHTCILYFWTDVYNLNYTLGFLMATAMQVVFSFFSNKFMVFK	failed
MKRSSLLVRMVISIFLVFLILLALVGTFYYQSSSSAIEATIEGNSQTTISQTSHFIQSYIKKLETTSTGLTQQTDVLAYAENPSQDKVEGIRDLFLTILKSDKDLKTVVLVTKSGQVISTDDSVQMKTSSDMMAEDWYQKAIHQGAMPVLTPARKSDSQWVISVTQELVDAKGANLGVLRLDISYETLEAYLNQLQLGQQGFAFIINENHEFVYHPQHTVYSSSSKMEAMKPYIDTGQGYTPGHKSYVSQEKIAGTDWTVLGVSSLEKLDQVRSQLLWTLLGASVTSLLVCLCLVWFSLKRWIAPLKDLRETMLEIASGAQNLRAKEVGAYELREVTRQFNAMLDQIDQLMVAIRSQEETTRQYQLQALSSQINPHFLYNTLDTIIWMAEFHDSQRVVQVTKSLATYFRLALNQGKDLICLSDEINHVRQYLFIQKQRYGDKLEYEINENVAFDNLVLPKLVLQPLVENALYHGIKEKEGQGHIKLSVQKQDSGLVIRIEDDGVGFQDAGDSSQSQLKRGGVGLQNVDQRLKLHFGANYHMKIDSRPQKGTKVEIYINRIETS	failed
MKRSTEFLKSLDVKLILILLALCVTSIAAIYSSQQTGQYGESNFAMKQGLNYIIGVVLLLLVASIDLDQLQKLSWPLYIVGFASLILLKILPVSTFTPEKLGAKRWFVFPLVGQIQPSEFFKISLLLVVASIAVKHNAQYMARTFQTDLKLVGKIVLVSLPPIAVVYSQPDTGMVFLYAAAIACILFMSGIQKKLIALCTVIPVTILSTLIFIYVRYEDFFFNKLVTLLKPHQQSRILGWLDPFEHTDQGYQTQQSILAVGSGGMEGKGFGEGNVYIPEKHTDFIFATIAEEGGFIVAALVVFLFLLLLYRTIIIGYSADNLFGTLLCAGSIGILTVQIFQNIGMIVGLMPVKGIALPFLSYGGSSLFSNMIMMGLILSVRKTYKKYMFSVK	failed
MKRVPWVVGGLILIMAYNAALGTLAYWQRRDIIDESLREAVVVADILVREVEANLDRIDRTLSGLTEVLRAYPSAIDVHDPFTHRLLLRRHAITPSLAALFLIGGDGRLRNASLTDKVSEIDVSGEDYFAFHLSNVDDEFFIGAVTTNRLDKSWVIPVSRAVRDSFGRLTGVVAATITTDSIDQMIHSHQLSEGFAVTITQRDAGMIGCLGFTRCWGEGAPHRGDEGLAESGGSGEEVHYLPNGPGVGAFLRGPTYGVEVTVQASDRTLLQPWREKLAFILVLQVFGTLGLGFGITSLYYQMHHRRVSLLDLERANASLESKVAERTRQLAEGEERMRGFIMAARDAVVIIDQKGIISEFNPSATELFGYDVEEVRGQSVNMLMPATYARDHDGHLRKGKPSGQRAIGRGREMIGRRKNGSEFPIELTVGTQSFDGTRVHIGVIRDITERKATEETLRRLANIDGLTGVLNRRSFTEESELLLSLANRHGRRLSMMIVDADHFKGVNDTYGHDAGDRVLKALTGEIAGVLRKTDLLGRIGGEEFAILLPETDQEGAEGLAWRVVLAIRALEVPLPEGGVLKVTVSVGVSCRNTEAATFDWMLKEADTALYAAKHGGRDRVACFGQTQSVARS	failed
MKRVVEAWDRFQIPLYITALIAGALVGLQWPGSTGGFESAINPALMALLYATFLGIPITRIGAALKDLRFLIVLMSVNFVAVPLVAFALSRFIAGDEALLIGFLLVILAPCIDYVIVFAGLARAAQDKLLAATPILMLVQILLIPVFLAVFVGSDALGSISFGPFVEAFFLLILIPLVAAAGTQQVARKWQVGRTIMAAAEAIMVPLMMLTLFAVIASQVEAVSGQFTDIATVVPLYVAFLMVMIPIGGGISKLGGLGFKEQRAIVFSGATRNSLVVLPLALALPAGLEIAAVVVVTQTLVELIGMVVYVRIIPLIFHEKQTYRKLSGIGES	failed
MKSASGQEKSIVVRRFDPARFVALVRKESLQAMRDPSTLLIALVLPLILLFLFAYAVSLDVRHVRIGVVLESPGATARTLADAFSGTHYLDVTFAYDRREVAGKLIAGELRGYVVIPQNFERHFADTGSPLVQIITDGSQPNTANFVANYAQGVVQTWMASLTETMPMPAVQLEPRYWFNPELASRRALVPGAIAIIMTIIGTLLTALVVAREWERGTMEAILSTPASVLEILVGKLLPYFVLGMLSTLIAAALAVFLFNVPLRGSLFALLVLSAVFMMPALGQGLLISSLARNQFLASQLALFSGYLPAFMLSGFLFEIDAMPALIRAITWLIPARYFVSSLKTIFLAGDVWSVFLPDLLGMATIGLIFFLIAQRYTRKSLE	failed
